In the supplement of paper PMC10567573:

B1: NR2F2 (parent)
chain: NIPFFPDLQITDQVALLRLTWSEL
B2: KRT15 (parent)
chain: FGGGSTRGGSLLAGGGGFGGGSLS
B3: WDR41 (parent)
chain: HVGELIIWDALDWTMQAYERNFWD

Variants of: B1
Assay: protein stability index of a GFP-peptide fusion (GPS, HEK-293T) (PSI 1-6); higher = more stable
Conditions: c terminus: a fixed tail appended
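Further: lentivirally expressed fusions sorted by FACS into six bins by GFP to DsRed ratio, PSI derived from sequencing read proportions per bin multiplied by bin number.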

Protein stability index, by site and new letter:
I2: A 1.05, F 2.28, D 2.85, S 2.38, M 2.5, L 1.88, R 1.94, C 2.42, E 2.07, Q 1.78, K 2.25, G 1.46, N 2.02, P 2.9, H 2.1
N1: D 3.27, S 1.75, E 2.36, K 2.26, M 3.01, F 3.02, P 2.45, Q 1.1, H 2.44, R 4.3, C 2.81, T 2.02, W 2.72, L 2.23, Y 2.74

Variants of: B2
Assay: as above
Conditions: c terminus: a fixed tail appended

Protein stability index: each site, then its substitutions
S24: K 1.49, N 1.71, D 1.61, M 3.68, I 1.84, P 2.66, T 2.51
S22: T 2.05, F 2.49, Q 1.48, L 1.6, R 2.82, H 2.29
F18: P 2.21, I 1.76
G20: Y 2.52, N 2.17, C 1.41, K 2.1, S 1.77, P 3.18, T 1.74, Q 1.09
G19: F 2.8, K 3.1, I 3.12, E 2.35, S 2.06, D 1.47, N 2
L23: I 1.61, M 2.73, G 2.26, Q 1.96
G21: L 1.52, D 1.75, S 1.95, I 1.34, R 1.24, P 2.65, N 2.48

Variants of: B3
Assay: as above
Conditions: c terminus: a fixed tail appended

Protein stability index: each site, then its substitutions
H1: M 3.52, C 2.04, Y 2.18, R 1.58, T 2.01, S 3.37, I 4.28, K 2.73, P 1.49, N 1.48, E 1.27, L 2.13, Q 1.9
L11: Y 2.08, T 1.46, H 2.06, V 3.1, C 2.2, P 2.03, Q 2.86, I 3.82, R 2.83, D 1.77, A 1.61, N 2.23, K 2.67
M15: D 1.76, K 3.06, T 1.05, G 1.06, S 1.88, Q 2.44
W23: E 1.72, N 1.71, L 1.8, K 1.39, D 1.89, I 2.83, P 1.45, S 1.82, C 1.71, G 2.62, V 3.03
Y18: N 2.18, S 1.07, C 3.15, E 1.12, R 2.81, A 3.71, H 1.6, K 2.17
D12: Y 1.11, F 3.35, P 2.1, V 2.81, K 2.15
W13: A 1.98, P 1.52, H 2.04, Y 2.84, E 1.59, K 2.37, D 2.07, S 3.29, C 2.51, F 4.66, T 1.97, Q 2.21, N 1.69
D9: T 3.42, L 1.54, P 3.61, W 2.99, M 3, H 2.88, K 2.07, R 2.69, F 2.57, C 2.29
D24: H 4.96, K 1.4, I 3.06, E 3.24
I6: Y 2.39, P 2.41, E 1.36, Q 1.62, K 2.75, D 1.81, C 1.47, G 1.22, S 1.66, N 2.17, R 1.55, A 1.75, W 2.51, M 2.35, T 1.87, H 1.59
R20: S 1.56, G 1.75, K 1.5, E 1.46, N 2.98, L 3.16, T 3.97, C 1.24, A 1.32, P 2.05
A17: N 4.42, E 2.26, G 1.81, I 1.15, W 3.37, F 3.37, T 1.74, C 2.5, P 1.76, K 2.09, H 1.63
Q16: I 2.45, C 2.77, M 2.63, G 1.78
W8: D 2.74, T 1.28, L 3.77, M 2.85, E 2.13, S 1.51, N 1.3, G 2.89, I 2.39, R 2.78, Q 1.98, C 1.88, V 2.29, A 2.8, Y 1.42, P 2.16, K 1.67, H 1.61
A10: H 1.61, G 1.95, T 3.56, D 1.6, S 1.63, W 3.36, K 1.09, P 1.5, N 1.05
N21: E 2.14, I 2.9, G 2.56, S 2.11, M 3.52, Q 2.87, T 2.15, L 3, D 1.87
E19: N 1.91, A 1.64, V 1.87, D 1.67, P 1.72, C 2.17, H 2.77, T 1.44, I 2.09, Q 3.24
L5: S 1.47, R 1.5, G 1.92, M 1.97, P 1.99, D 2.17, A 1.95, Y 3.11, Q 2.13, N 1.93, F 3.54, T 1.94, K 2.21, H 1.56
E4: F 3.77, L 2.92, V 3.53, D 1.86, S 2.34, K 1.84, Y 3.22, N 2.42, P 1.81, A 2.85, G 1.85, H 2.13, Q 2.46, M 2.15
G3: N 1.89, H 2.49, D 2.35, S 1.84, T 2.82, Q 2.54, R 1.87, K 2.06, L 1.72, E 1.87, V 4.45, Y 2.42
F22: M 2.71, P 1.75, G 2.8, E 3.79, L 2.35, T 3.49, K 1.41, W 1.74, S 1.57
V2: G 1.65, Q 2.35, M 2.59, R 1.09, C 1.97, D 2.01, F 2.69, T 1.92, L 3.8, P 1.54, S 2.47, A 1.58, E 1.51, I 2.08, N 1.48, K 2.35, H 2.44
T14: Y 4.99, D 1.68, K 2.31, N 1.42, Q 1.38, G 2.08, V 2.54, P 2.28, S 1.24
I7: A 1.87, S 2.33, E 2.41, G 1.8, W 2.44, L 1.93, V 1.59, T 1.41, M 1.52, N 2.19, H 2.17, Y 2.71, C 1.26, Q 2.11, P 2.87, K 1.96, R 1.99, D 2.07
